Values of other authors, collected in article doi:10.1101/2022.06.02.22275920v1, “Glucagon/GLP-1 receptor co-agonist NNC9204-1177 reduced body weight in adults with overweight or obesity but was associated with safety issues” (medRxiv, 2022).

Conditions: type 2 diabetes; 1.0 mg dose level
Text: Indeed, GLP-1 RAs are known to have chronotropic effects; for example, increases in pulse rate have been reported in participants with type 2 diabetes in a MAD trial with semaglutide and in trials with dulaglutide and a dual glucose-dependent insulinotropic polypeptide (GIP) and GLP-1 RA [33]. However, the increase in heart rate for NN1177 far exceeds that observed for semaglutide; for example in the SUSTAIN 6 cardiovascular outcomes trial for semaglutide in type 2 diabetes, a placebo ...

semaglutide
placebo-corrected heart rate increase: 3.2 bpm
